From paper PMC3118927
Substitutions are numbered along the chain they refer to. Like-named read-outs stand apart in the source and are kept apart here.

B1: fkh[250con] (dsDNA)
DNA 1: GATCTCAATGTCAAGATTTATGGCCAGCTGTGGGACGA
DNA 2: CCTCGTCCCACAGCTGGCCATAAATCTTGACATTGAGA
B2: PrFHOX (dsDNA)
DNA 1: TGATGGCTTCCCTTATGATTTTTTGAATAATTTCTTTA
DNA 2: TATAAAGAAATTATTCAAAAAATCATAAGGGAAGCCAT
B3: PrFWT (dsDNA)
DNA 1: B2 DNA 1 with T22A
DNA 2: B2 DNA 2 with A19T
B4: PrFEXD (dsDNA)
DNA 1: B2 DNA 1 with G17A, A18G, T22A
DNA 2: B2 DNA 2 with A19T, T23C, C24T

Key:
Experiment in all cases: EMSA
Exd (Extradenticle);Ubx [1] = molecular target: T1, Exd (Extradenticle);Ubx (Drosophila melanogaster?;Drosophila …, UniProt P40427;P83949 1-376;56-389, |)
Exd (Extradenticle);Ubx [2] = molecular target: T1, Exd (Extradenticle);Ubx; remark: listed apart in the source
Exd (Extradenticle);Ubx [3] = molecular target: T1, Exd (Extradenticle);Ubx; remark: listed apart in the source

T1 sequence (P40427 whole entry, chain 1 of 2): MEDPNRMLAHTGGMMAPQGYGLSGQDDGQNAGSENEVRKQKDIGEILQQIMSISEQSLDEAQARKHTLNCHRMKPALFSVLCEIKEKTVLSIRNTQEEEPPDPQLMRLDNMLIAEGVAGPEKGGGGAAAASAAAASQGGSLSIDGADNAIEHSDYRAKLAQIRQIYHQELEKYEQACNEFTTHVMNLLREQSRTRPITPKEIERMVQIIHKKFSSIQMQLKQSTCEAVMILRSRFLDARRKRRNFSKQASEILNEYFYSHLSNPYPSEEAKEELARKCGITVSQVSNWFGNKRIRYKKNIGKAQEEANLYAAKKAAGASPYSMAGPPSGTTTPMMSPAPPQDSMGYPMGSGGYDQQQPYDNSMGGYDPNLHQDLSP
T1 sequence (P83949 56-389, chain 2 of 2): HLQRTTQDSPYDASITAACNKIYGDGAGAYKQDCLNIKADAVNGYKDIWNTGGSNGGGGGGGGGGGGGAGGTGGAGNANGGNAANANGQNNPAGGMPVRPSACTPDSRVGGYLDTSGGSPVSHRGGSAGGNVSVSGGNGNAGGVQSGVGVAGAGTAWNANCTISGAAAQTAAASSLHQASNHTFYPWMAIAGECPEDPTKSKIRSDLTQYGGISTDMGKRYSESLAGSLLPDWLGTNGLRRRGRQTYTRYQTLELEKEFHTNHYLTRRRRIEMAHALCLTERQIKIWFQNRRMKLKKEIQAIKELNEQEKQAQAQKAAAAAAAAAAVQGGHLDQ

Binder | binding result (Exd (Extradenticle);Ubx [2]) | other results
B1 | – | binding result (Exd (Extradenticle);Ubx [1]): binds
B2 | no binding | –
B3 | – | binding result (Exd (Extradenticle);Ubx [3]): binds
B4 | no binding | –
